Patent publication US20240409621A1 (XIAMEN UNIVERSITY, published 2024)

What was measured:
Test in all cases: cell-based or functional assay
[1] = molecular target: F protein of RSV type B strain 18537 (on the virus in the neutralization assay) (respiratory syncytial virus type B, …, UniProt P13843 26-574)
[2] = molecular target: T1, F protein of RSV A2 (on the virus in the neutralization assay) (respiratory syncytial virus, A2 strain, UniProt P03420 26-574)
[3] = molecular target: T1, F protein of RSV A2 (on the virus in …); remark: listed apart in the source

Binder | neutralizing ability against 18537, relative to 1129 [1] [times] | neutralizing ability against RSV A2, relative to 1129 [2] [times] | IC50 of each RSV neutralizing antibody, RSV A2 [3] [µg/mL]
monoclonal antibody 5B11 (antibody, V domains shown) VH: QIQLVQSGPELKKPGETVKISCKASGYTFTDYSMHWLKQAPGKGLKWMGWITTETGEPTYADDFKGRFAFSLETSASTAYLQINNLKNEDTGIYFCARYYYGPFYWGQGTLVTVST VL: DIQMTQSPASLSASVGETVTITCRSSGNIHNFLTWYQQKQGKSPQFLVYNAKTLADGVSSRFSGSGSGTQFSLKINSLQPEDFGIYYCQHFWTTPYTFGGGTKLEIK | ~10 | 50 | 0.0074
monoclonal antibody 6B2 (antibody, V domains shown) VH: EVQLQQSRPELVKPGASVKISCKASGYSFTAYFMNWVKQSHGKSLEWIGRINPYIGDTFYNQKFKGKATLTVDKSSNTAHMELLSLTSEDSAVYYCGRSEYGNYYFDYWGQGTTLTVSQ VL: ENVLTQSPAIMSASLGEKVTMSCRASSSVNYMYWYQQKSDASPKLWIYYTSNLAPGVPARFSGSGSGNSYSLTISSMEGEDAATYYCQQFTSSPLTFGAGTKLELK |  |  | 0.0949
monoclonal antibody 7G5 (antibody, V domains shown) VH: QVQLKESGPGLVAPSQSLSITCTVSGFSLSSYGVHWIRQPPGKGLEWLGVIWAGGSTNYNSALMSRLSISEDNSKSQVFLKMNSLQTDDTAVYYCARKGLVWPAMDYWGQGTSVTVSQ VL: DIQMTQTTSSLSASLGDRVTISCRASQDISHYLNWYQQKPDGTVKLLIYYTSRLHSGVPSRFSGSGSGTDYSLTIYNLEQEDIATYFCQQGNTLPWTFGGGTKLEIK |  |  | 0.0316
